Test results: patent publication US20220242937A1 (CHANGCHUN GENESCIENCE PHARMACEUTICAL, published 2022)

B1: 066-4.26.14H5L2 (antibody, V domains shown)
VH: EVQLVESGGGLVQPGGSLRLSCVASGFTFRSYAMSWVRQAPGKGLEWVASISTTSNTYYPDSVKGRFTTSRDNSKNTVYLQMSSLRAEDTAVYYCGRGVITNQAWFAYWGQGTLVTVSS
VL: DIVLTQSPATLSVSPGERATLSCRASQSISNNLHWYQQKPGQAPRLLIKYASQSISGIPARFSGSGSGTDFTLTISSLQSEDFAVYFCQQSNSWPLTFGGGTKVEIK
B2: 066-4.26.14H4L2 (antibody, V domains shown)
VH: EVQLVESGGGLVQPGGSLRLSCAASGFTFRSYAMSWVRQAPGKGLEWVASISTTSNTYYPDSVKGRFTTSRDNAKNSVYLQMSSLRDEDTAMYYCGRGVITNQAWFAYWGQGILVTVSS
VL: DIVLTQSPATLSVSPGERATLSCRASQSISNNLHWYQQKPGQAPRLLIKYASQSISGIPARFSGSGSGTDFTLTISSLQSEDFAVYFCQQSNSWPLTFGGGTKVEIK
B3: 066-4.26.14H5L1 (antibody, V domains shown)
VH: EVQLVESGGGLVQPGGSLRLSCVASGFTFRSYAMSWVRQAPGKGLEWVASISTTSNTYYPDSVKGRFTTSRDNSKNTVYLQMSSLRAEDTAVYYCGRGVITNQAWFAYWGQGTLVTVSS
VL: DIVLTQSPATLSVSPGERVTLSCRASQSISNNLHWYQQKSGQAPRLLIKYASQSISGIPSRFSGSGSGTDFTLTISSLQSEDFAVYFCQQSNSWPLTFGGGTQVEIK
B4: 066-4.26.14H2L2 (antibody, V domains shown)
VH: EVQLVESGGGLVKPGGSLRLSCAASGFTFRSYAMSWVRQTPEKRLEWVASISTTSNTYYPDSVKGRFTTSRDNAKNSVYLQMSSLRAEDTAVYYCGRGVITNQAWFAYWGQGTTVTVSS
VL: DIVLTQSPATLSVSPGERATLSCRASQSISNNLHWYQQKPGQAPRLLIKYASQSISGIPARFSGSGSGTDFTLTISSLQSEDFAVYFCQQSNSWPLTFGGGTKVEIK
B5: 066-4.26.14 (antibody, V domains shown)
VH: EVKLVESGGGLVKPGGSLKLSCAASGFTFRSYAMSWVRQTPEKRLEWVASISTTSNTYYPDSVKGRFTTSRDNARNIVYLQMSSLRSDDTAMYYCGRGVITNQAWFAYWGQGTLVTVSA
VL: DIVLTQSPATLSVTPGDSVSLSCRASQSISNNLHWYQQKSHESPRLLIKYASQSISGIPSRFSGSGSGTDFTLSVNNVGTEDFGMYFCQQSNSWPLTFGAGTKLELK
B6: 066-4.26.14H2L3 (antibody, V domains shown)
VH: EVQLVESGGGLVKPGGSLRLSCAASGFTFRSYAMSWVRQTPEKRLEWVASISTTSNTYYPDSVKGRFTTSRDNAKNSVYLQMSSLRAEDTAVYYCGRGVITNQAWFAYWGQGTTVTVSS
VL: DIVLTQSPDFQSVTPKEKVTISCRASQSISNNLHWYQQKPDQSPKLLIKYASQSISGIPSRFSGSGSGTDFTLTINSLEAEDAAAYFCQQSNSWPLTFGPGTKVEIK
B7: mouse-human chimeric antibody 066-4.26.14-chAb (antibody, human IgG1, kappa, V domains shown)
VH: EVKLVESGGGLVKPGGSLKLSCAASGFTFRSYAMSWVRQTPEKRLEWVASISTTSNTYYPDSVKGRFTTSRDNARNIVYLQMSSLRSDDTAMYYCGRGVITNQAWFAYWGQGTLVTVSA
VL: DIVLTQSPATLSVTPGDSVSLSCRASQSISNNLHWYQQKSHESPRLLIKYASQSISGIPSRFSGSGSGTDFTLSVNNVGTEDFGMYFCQQSNSWPLTFGAGTKLELKR
B8: 066-4.26.14H5L3 (antibody, V domains shown)
VH: EVQLVESGGGLVQPGGSLRLSCVASGFTFRSYAMSWVRQAPGKGLEWVASISTTSNTYYPDSVKGRFTTSRDNSKNTVYLQMSSLRAEDTAVYYCGRGVITNQAWFAYWGQGTLVTVSS
VL: DIVLTQSPDFQSVTPKEKVTISCRASQSISNNLHWYQQKPDQSPKLLIKYASQSISGIPSRFSGSGSGTDFTLTINSLEAEDAAAYFCQQSNSWPLTFGPGTKVEIK

Each binder was assayed against human Aβ antigen (human) (assay: cell-based or functional assay).
Sequence of human Aβ antigen (human) (peptide, as listed by the source): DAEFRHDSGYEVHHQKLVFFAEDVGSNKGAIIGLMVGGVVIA

First: B1
Second: B2
The “relative fluorescence intensity (ThT, Aβ polymerization; hIgG = 1.00)” value (from here on “relative fluorescence intensity”) of the first is lower: 0.67 for the first, 0.7 for the second.

First: B3
Second: B4
The “relative fluorescence intensity” value of the first is higher: 0.68 for the first, 0.62 for the second.

Going from B5 to B6, the “relative fluorescence intensity” value falls from 0.7 to 0.67.

Going from B7 to B8, the “relative fluorescence intensity” value rises from 0.71 to 0.78.

Compared with B1, B2 is higher in “relative value of LDH release (SHSY5Y cells with Aβ; hIgG = 1.00)” value (“relative value of LDH release” for short): 1.26 for the first, 1.3 for the second.

Going from B3 to B4, the “relative value of LDH release” value rises from 1.37 to 1.41.

Going from B5 to B6, the “relative value of LDH release” value rises from 1.2 to 1.42.

Compared with B7, B8 is higher in “relative value of LDH release” value: 1.32 for the first, 1.41 for the second.
